From patent US20250059285A1 (ARGENX, published 2025)

Key:
human Gal10-His [1] = target: T1, human Gal10-His (human, UniProt Q05315 2-142, limits assumed); test: SPR, summary table, human Gal10
T1 construct: also called hGal10-His; human Gal10-His tagged; not shown: His tag
T1 sequence: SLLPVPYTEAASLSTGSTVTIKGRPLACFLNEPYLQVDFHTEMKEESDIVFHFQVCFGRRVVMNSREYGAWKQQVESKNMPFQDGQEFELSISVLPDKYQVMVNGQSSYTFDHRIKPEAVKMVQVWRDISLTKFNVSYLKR

human Gal10-His [2] = target: T1, human Gal10-His; test: SPR Biacore 3000, Fab periplasmic extract on Gal10-His-coated CM5
Protocol: The binding properties of the Fabs (periplasmic extract) to human Gal10-His were analyzed by SPR with a Biacore 3000 instrument. For this purpose, the diluted periplasmic extract was applied on a CM5 chip coated with human Gal10-His. As a positive control, a 20 nM injection of the purified g7B07 clone in the human Fab backbone was included at the beginning and end of the run.
The binding capacity of the Fab periplasmic extract was analyzed by SPR technology using a Biacore 3000. Briefly, diluted periplasmic extracts were injected on CM5 chip coated with 2500 RU of Gal10-His. The amplitude of the binding (Rmax), the dissociation (off-rate) of each clone, as well as the off-rate fold change compared to the controls (g7B07 and g7B07_N53A) are indicated. Clones g20H09 and g23H09 had similar or better off rate compared to the control g7B07 (Table 10). The randomized part of the CDR2 sequence is underlined (Table 10).

[3] = target: T2, cynomolgus Gal10-His (WGS isoform) (cynomolgus); test: SPR on cynomolgus Gal10-His (WGS isoform)
T2 construct: also called cynomolgus antigen

human Gal10-His [4] = target: T1, human Gal10-His; test: SPR Biacore 3000, hFab on captured human Gal10-His
Source text: For this purpose, two approaches were used. In the first, two concentrations of the selected clones were applied on cynomolgus (WGS isoform) Gal10-His capture on a CM5 chip coated with a monoclonal anti-His antibody. The second approach involved a serial dilution that was applied on human or cynomolgus (WGS isoform) Gal10-His in the same set-up.
Further characterization of the cynomolgus cross-reactivity of these clones highlighted g24F02_N53A and g23H09.

[5] = target: T3, recombinant human Charcot-Leyden crystals (crystalline galectin-10) (human, UniProt Q05315 2-142, limits assumed); test: cell-based or functional assay
T3 sequence: T1 sequence

human Gal10-His [6] = target: T1, human Gal10-His; test: SPR Biacore 3000, hFab on captured human Gal10-His; column head prints (M), the text gives nM
[7] = target: T2, cynomolgus Gal10-His (WGS isoform); test: SPR, summary table, cynomolgus_WGS Gal10
human Gal10-His [8] = target: T1, human Gal10-His; test: SPR slope against calibrators on captured Gal10-His; sample 2 weeks at 37 C
Protocol: The binding properties of the seven selected clones following two weeks of temperature stress was analysed using an optimized capture method on a Biacore 3000 instrument. The binding properties of the stressed samples were determined, compared to the calibration point, and expressed as a percentage of Relative Activity (% RA).
Briefly, a capture method was set-up on a Biacore 3000 instrument. For this purpose, a CM5 chip was coated with a monoclonal anti-His antibody (4000 RU), then a fixed concentration of the human Gal10-His (25 μg/mL) was captured on the anti-His chip before receiving duplicate injections of the calibrators, QC samples and temperature stressed samples of each clone. The slope of each injected sample was then calculated using the BIA evaluation software. Concentrations of the QC samples and temperature stressed samples were back-calculated by interpolating the obtained slopes of these samples to the calibrator curve. Obtained values were within +/−20% of the nominal concentration of the tested samples and are expressed as average relative accuracy (avg % RA) (Table 13).

human Gal10-His [9] = target: T1, human Gal10-His; test: SPR Biacore 3000, hFab on human Gal10-His captured by anti-His CM5
human Gal10-His [10] = target: T1, human Gal10-His; test: competition ELISA on coated Gal10-His; hFab 20 ug/mL, competitor g7B07-hFab-Biot, streptavidin-HRP
Protocol: An epitope binning analysis of the humanized Fab clones was carried out in comparison with the humanized Fab of g7B07.
For this experiment, a sub-optimal concentration of the biotinylated clone g7B07-humanized Fab was added to the Gal10 coated plate and pre-incubated with the selected clones. The percentage competition with g7B07 was then determined (Table 17). Motavizumab (Mota) in a human Fab backbone was used as a negative control (0% competition). Clone g7B07 was used as the positive control for competition and was therefore set as the 100% competition value. The anti-human specific clone 1D11 (binding to Tyrosine 69 residue) was included in the tested panel as a negative control for competition with 7B07 for Gal10 binding because it was known that clone 1D11 binds to the opposite side of Gal10 (including Tyrosine 69).

B1: g23H09 (Fab) (Fab, V domains shown)
VH: EVQLLESGGGLVQPGGSLRLSCAASGFTFRSYDMSWVRQAPGKGLEWVSAIAQFQHWTYYADSVKGRFTISRDNSKNTLYLQMNSLRAEDTAVYYCATTHGIGTLGFGSWGQGTLVTVSS
VL: SYELTQPLSVSVALGQTARITCDGNNIGSKSAQWYQQKPGQAPVLVIYADEYRPEGIPERFSGSNSGNTATLTISRAQAGDEADYYCQVWDGSAAVFGGGTQLTVL
notes: same VH/VL
For B1, the Kd (human Gal10-His [1]) was 5.34 nM, the koff (human Gal10-His [1]) was 0.0031 s⁻¹ and the “Fold off-rate compared to g7B07” value (human Gal10-His [2]) was 0.4 fold. The koff (human Gal10-His [2]) was 0.0027 s⁻¹, the “fold better affinity than g7B07” value [3] was 7 fold and the “fold better affinity than g7B07” value (human Gal10-His [4]) was 1.7 fold. For the same binder, the “fold better off-rate than g7B07” value (human Gal10-His [4]) was 1.9 fold, the “recGal10 crystal dissolution EC50 (T2 h), Assay 1, nebulized” value [5] was 297 µg/mL and the “recGal10 crystal dissolution EC50 (T2 h), Assay 1, stressed (4 W at 37 C)” value [5] was 361 µg/mL. The “recGal10 crystal dissolution EC50 (T2 h), Assay 1, unstressed (T0)” value [5] was 252 µg/mL, the “recGal10 crystal dissolution EC50 (T2 h), Assay 2, nebulized” value [5] was 209 µg/mL and the “recGal10 crystal dissolution EC50 (T2 h), Assay 2, stressed (4 W at 37 C)” value [5] was 191 µg/mL. The “recGal10 crystal dissolution EC50 (T2 h), Assay 2, unstressed (T0)” value [5] was 190 µg/mL, the Kd (human Gal10-His [6]) was 5.34 nM and the Kd [7] was 9.9 nM. For the same binder, the koff [7] was 0.0095 s⁻¹, the “% Relative Activity (RA) on Biacore” value (human Gal10-His [8]) was 78% and the “Amplitude R0” value (human Gal10-His [9]) was 722 RU. For the same binder, the koff (human Gal10-His [9]) was 0.0031 s⁻¹, the kon (human Gal10-His [9]) was 590000 M⁻¹ s⁻¹ and the “% Competition against g7B07-Biot” value (human Gal10-His [10]) was 94.3%. For the same binder, the “Mean OD value” (human Gal10-His [10]) was 0.31 OD.
